This is an account of results in IntAct's records for PubMed 18653891.

B1: Serine/threonine-protein kinase BSK1 (Arabidopsis thaliana (Mouse-ear cress)), Q944A7 (parent)
chain: MGCCQSLFSGDNPLGKDGVQPQPLSQNNHGGATTADNGGSGGASGVGGGGGGGGIPSFSEFSFADLKAATNNFSSDNIVSESGEKAPNLVYKGRLQNRRWIAVKKFTKMAWPEPKQFAEEAWGVGKLRHNRLANLIGYCCDGDERLLVAEFMPNDTLAKHLFHWENQTIEWAMRLRVGYYIAEALDYCSTEGRPLYHDLNAYRVLFDEDGDPRLSCFGLMKNSRDGKSYSTNLAYTPPEYLRNGRVTPESVTYSFGTVLLDLLSGKHIPPSHALDMIRGKNIILLMDSHLEGKFSTEEATVVVELASQCLQYEPRERPNTKDLVATLAPLQTKSDVPSYVMLGIKKQEEAPSTPQRPLSPLGEACSRMDLTAIHQILVMTHYRDDEGTNELSFQEWTQQMKDMLDARKRGDQSFREKDFKTAIDCYSQFIDVGTMVSPTVFGRRSLCYLLCDQPDAALRDAMQAQCVYPDWPTAFYMQSVALAKLNMNTDAADMLNEAAQLEEKRQRGGRGS

The variants in the experiment derive from B1. As to conditions: with bri1_arath BRI1, O22476.
bri1_arath BRI1, O22476, sequence (O22476 whole entry): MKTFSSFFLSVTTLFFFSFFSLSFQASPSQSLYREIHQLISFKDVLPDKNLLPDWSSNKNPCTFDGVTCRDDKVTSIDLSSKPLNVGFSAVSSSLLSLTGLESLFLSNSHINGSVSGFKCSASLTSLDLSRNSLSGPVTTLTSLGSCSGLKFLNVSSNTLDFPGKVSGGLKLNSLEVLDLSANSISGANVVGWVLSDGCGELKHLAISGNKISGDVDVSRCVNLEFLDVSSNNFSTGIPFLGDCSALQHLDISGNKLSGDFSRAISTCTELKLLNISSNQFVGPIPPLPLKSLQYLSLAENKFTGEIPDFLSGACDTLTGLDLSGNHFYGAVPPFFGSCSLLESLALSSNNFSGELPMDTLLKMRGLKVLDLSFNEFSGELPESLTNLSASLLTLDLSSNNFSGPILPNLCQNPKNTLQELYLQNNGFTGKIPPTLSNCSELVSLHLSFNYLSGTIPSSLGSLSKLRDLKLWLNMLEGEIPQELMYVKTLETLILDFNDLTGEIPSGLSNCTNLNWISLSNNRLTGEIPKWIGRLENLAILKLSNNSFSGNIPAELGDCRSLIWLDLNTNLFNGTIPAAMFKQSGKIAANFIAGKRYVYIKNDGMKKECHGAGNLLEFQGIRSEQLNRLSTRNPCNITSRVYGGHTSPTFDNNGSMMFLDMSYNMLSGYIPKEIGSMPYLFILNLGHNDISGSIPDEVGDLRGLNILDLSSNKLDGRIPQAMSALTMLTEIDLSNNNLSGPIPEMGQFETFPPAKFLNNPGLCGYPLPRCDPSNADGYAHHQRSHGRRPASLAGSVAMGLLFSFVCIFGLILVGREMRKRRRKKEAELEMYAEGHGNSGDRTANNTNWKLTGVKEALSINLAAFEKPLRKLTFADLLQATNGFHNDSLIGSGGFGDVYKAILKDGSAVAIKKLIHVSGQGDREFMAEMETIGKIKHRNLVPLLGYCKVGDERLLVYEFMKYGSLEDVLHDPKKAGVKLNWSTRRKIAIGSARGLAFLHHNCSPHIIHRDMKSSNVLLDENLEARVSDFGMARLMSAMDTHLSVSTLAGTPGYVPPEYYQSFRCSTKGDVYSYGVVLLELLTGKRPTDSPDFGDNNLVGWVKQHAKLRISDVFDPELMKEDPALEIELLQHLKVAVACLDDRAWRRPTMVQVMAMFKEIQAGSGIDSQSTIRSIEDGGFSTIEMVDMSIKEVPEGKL
Regarding S230A, the “effect of a mutation on the interaction” value was “decreasing interaction”.
